Data as given in IntAct's records for PubMed 22000412.

target: bub1b_human BUB1B (UniProt O60566)
Sequence (O60566 whole entry): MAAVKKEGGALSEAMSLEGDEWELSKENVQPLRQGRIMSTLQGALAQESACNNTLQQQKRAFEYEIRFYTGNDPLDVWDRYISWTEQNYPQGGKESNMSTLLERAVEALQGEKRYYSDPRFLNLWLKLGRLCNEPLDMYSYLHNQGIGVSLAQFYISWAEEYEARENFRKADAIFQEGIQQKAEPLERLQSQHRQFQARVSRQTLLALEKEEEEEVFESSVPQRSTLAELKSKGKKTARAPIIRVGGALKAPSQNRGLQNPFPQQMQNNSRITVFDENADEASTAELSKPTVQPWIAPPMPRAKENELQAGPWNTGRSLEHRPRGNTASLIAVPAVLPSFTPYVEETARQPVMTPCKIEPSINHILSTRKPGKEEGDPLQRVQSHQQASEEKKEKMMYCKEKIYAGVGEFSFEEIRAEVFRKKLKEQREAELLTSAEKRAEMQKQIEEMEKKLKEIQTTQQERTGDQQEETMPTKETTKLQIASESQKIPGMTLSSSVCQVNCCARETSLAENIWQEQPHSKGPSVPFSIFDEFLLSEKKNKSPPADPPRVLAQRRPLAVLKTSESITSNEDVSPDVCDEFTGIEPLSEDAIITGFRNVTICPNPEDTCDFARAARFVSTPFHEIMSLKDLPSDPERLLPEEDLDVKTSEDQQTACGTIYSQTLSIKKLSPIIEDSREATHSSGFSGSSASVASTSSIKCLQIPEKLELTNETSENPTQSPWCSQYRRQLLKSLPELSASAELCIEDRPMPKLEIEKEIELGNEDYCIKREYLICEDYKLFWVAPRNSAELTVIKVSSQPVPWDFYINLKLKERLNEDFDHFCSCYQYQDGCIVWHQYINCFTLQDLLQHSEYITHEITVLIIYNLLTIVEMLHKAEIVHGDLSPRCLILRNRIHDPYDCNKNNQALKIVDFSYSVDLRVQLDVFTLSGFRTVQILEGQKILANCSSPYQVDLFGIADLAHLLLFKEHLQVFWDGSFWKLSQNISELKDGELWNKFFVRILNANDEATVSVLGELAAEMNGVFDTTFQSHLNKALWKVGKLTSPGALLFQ

| Substance | effect of a mutation on the interaction |
| --- | --- |
| Outer kinetochore KNL1 complex subunit KNL1 (Homo sapiens), Q8NG31-2 F215A;F218A | disrupting interaction |
| Outer kinetochore KNL1 complex subunit KNL1 (Homo sapiens), Q8NG31-2 F215A;I219A | disrupting interaction |
| Outer kinetochore KNL1 complex subunit KNL1 (Homo sapiens), Q8NG31-2 I213A;F215A;F218A | disrupting interaction |
